pIC50: −log10 of the molar value. Like-named read-outs stand apart in the source and are kept apart here.
Tests used:
human GLP-1 receptor [1] = molecular target: T1, human GLP-1 receptor (Homo sapiens, UniProt P43220)
human GLP-1 receptor [2] = molecular target: T1, human GLP-1 receptor; test: SPA displacement of [^125I]-GLP-1(7-36)NH2 from BHK membranes with the human GLP-1 receptor, 2.0% HSA (high albumin)
human GLP-1 receptor [3] = molecular target: T1, human GLP-1 receptor; test: SPA displacement of [^125I]-GLP-1(7-36)NH2 from BHK membranes with the human GLP-1 receptor, 0.005% HSA (low albumin)
[4] = molecular target: Human Serum Albumin (human) (UniProt P02768); test: shift of the GLP-1 receptor IC50 (SPA displacement of ^125I-GLP-1) between 2.0% and 0.005% HSA, which the filing takes as an indication of albumin binding
human GLP-1 receptor [5] = molecular target: T1, human GLP-1 receptor; remark: listed apart in the source

| EC50 of cAMP formation (AlphaScreen cAMP assay) (human GLP-1 receptor [1]) [µM] | pIC50 (human GLP-1 receptor [2]) | pIC50 (human GLP-1 receptor [3]) | ratio [(IC50/nM) high HSA]/[(IC50/nM) low HSA] [4] | EC50 of cAMP formation (AlphaScreen cAMP assay) (human GLP-1 receptor [5]) [µM] | Substance |
| --- | --- | --- | --- | --- | --- |
| < 0.0021 |  |  |  |  | N^3-{2-[2-(1H-Imidazol-4-yl)-methylcarbamoyl]-2-methyl-propionyl}-[2-(2-{2-[2-(2-{2-[(S)-4-Carboxy-4-(17-carboxyheptadecanoylamino)-butyrylamino]ethoxy}ethoxy)-acetylamino]ethoxy}-ethoxy)acetyl][Arg^17,Arg^20,Arg^33,Lys^38]GLP-1A(3-37)-peptide |
| < 0.0021 | > 6.05 | > 7.40 | > 10 |  | N^9-{2-[2-(1H-Imidazol-4-yl)-ethylcarbamoyl]-2-methyl-propionyl}-N^ε26-[2-(2-{2-[2-(2-{2-[(S)-4-Carboxy-4-(17-carboxyheptadecanoylamino)butyrylamino]ethoxy}ethoxy)acetylamino]ethoxy}ethoxy)acetyl][His^31,Gln^34]GLP-1(9-37)-peptide |
| < 0.0021 | > 6.05 | > 7.40 | > 10 |  | N^9-{2-[2-(1H-Imidazol-4-yl)-ethylcarbamoyl]-2-methyl-propionyl}N^ε26-[2-(2-{2-[2-(2-{2-[(S)-4-Carboxy-4-(17-carboxyheptadecanoylamino)butyrylamino]ethoxy}ethoxy)acetylamino]ethoxy}ethoxy)acetyl][Arg^34]GLP-1(9-37)-peptide |
| < 0.0021 | > 6.05 | > 7.40 | > 10 |  | N^9-[-{2-[2-(1H-Imidazol-4-yl)-ethylcarbamoyl]-2-methyl-propionyl}-N^ε18-[2-(2-[2-(2-[2-(2-((S)-3-[1-(19-Carboxy-nonadecanoyl)-piperidine-4-carboxyamino]-3-carboxypropionylamino)ethoxy)ethoxy]acetylamino)ethoxy]ethoxy)acetyl][Lys^18,Glu^22, Gln^34]GLP-1(9-37)-peptide |
|  |  | < 7.40 | > 300 | > 0.008 | N^9-(5-oxo-5-phenylpentanoyl), N^ε26-[2-[2-[2-[[2-[2-[2-[[(4S)-4-carboxy-4-(17-carboxyheptadecanoylamino)butanoyl]amino]ethoxy]ethoxy]acetyl]amino]ethoxy]ethoxy]acetyl]-[Arg^34]-GLP-1-(9-37)-peptide |
| < 0.0021 | > 6.05 | > 7.40 | > 10 |  | N^9-{2-[2-(1H-Imidazol-4-yl)-ethylcarbamoyl]-2-methyl-propionyl}-N^ε36-(2-{2-[2-(17-carboxyheptadecanoylamino)ethoxy]ethoxy}acetyl) (Glu^30,Lys^36)GLP-1(9-37) Glu^38-peptide amide |
| < 0.0021 | > 6.05 | > 7.40 | > 10 |  | N^9-{2-[2-(1H-Imidazol-4-yl)methylcarbamoyl]-2-methyl-propionyl}-N^ε36-(2-{2-[2-(17-carboxyheptadecanoylamino)ethoxy}ethoxy]acetyl)[Glu^30,Lys^36]GLP-1(9-37) Glu^38-peptide amide |
| < 0.0021 | > 6.05 | > 7.40 | > 10 |  | N^9-{2-[2-(1H-Imidazol-4-yl)-propylcarbamoyl]-2-methyl-propionyl}-N^ε36-(2-{2-[2-(17-carboxyheptadecanoylamino)ethoxy]ethoxy}acetyl) [Glu^30,Lys^36]GLP-1(9-37)Glu^38-peptide amide |
| < 0.0021 | > 6.05 | > 7.40 | > 10 |  | N^9-{2-[2-(1H-Imidazol-4-yl)-ethylcarbamoyl]-2-methyl-propionyl}N^ε26-{2-[2-(2-{2-[2-(2-{(S)-4-Carboxy-4-[10-(4-carboxy-phenoxy)-decanoylamino]-butyrylamino}-ethoxy)-ethoxy]-acetylamino}-ethoxy)-ethoxy]-acetyl}, N^ε37-{2-[2-(2-{2-[2-(2-{(S)-4-Carboxy-4-[10-(4-carboxy-phenoxy)-decanoylamino]-butyrylamino}-ethoxy)-ethoxy]-acetylamino}-ethoxy)-ethoxy]-acetyl}[Arg^34,Lys^37]GLP-1(9-37)Glu^38-peptide |
| < 0.0021 | > 6.05 | > 7.40 | > 10 |  | N^9-{2-[2-(1H-Imidazol-4-yl)-ethylcarbamoyl]-2-methyl-propionyl}-N^ε26-{2-[2-(2-{2-[2-(2-{(S)-4-Carboxy-4-[10-(4-carboxy-phenoxy)-decanoylamino]-butyrylamino}-ethoxy)-ethoxy]-acetylamino}-ethoxy)-ethoxy]-acetyl}, N^ε37-{2-[2-(2-{2-[2-(2-{(S)-4-Carboxy-4-[10-(4-carboxy-phenoxy)-decanoylamino]-butyrylamino}-ethoxy)-ethoxy]-acetylamino}-ethoxy)-ethoxy]-acetyl}[Arg^34,Lys^37]GLP-1(9-37)-peptide |
| < 0.0021 | > 6.05 | > 7.40 | > 10 |  | N^9-[2,2-dimethyl-3-oxo-3-(pyridin-2-ylmethylamino)propanoyl], N^ε26-[2-[2-[2-[[2-[2-[2-[[(4S)-4-carboxy-4-[10-(4-carboxyphenoxy)decanoylamino]butanoyl]amino]ethoxy]ethoxy]acetyl]amino]ethoxy]ethoxy]acetyl], N^ε37-[2-[2-[2-[[2-[2-[2-[[(4S)-4-carboxy-4-[10-(4-carboxyphenoxy)decanoylamino]butanoyl]amino]ethoxy]ethoxy]acetyl]amino]ethoxy]ethoxy]acetyl]-[Arg^34,Lys^3]-GLP-1-(9-37)-peptide |
| < 0.0021 | > 6.05 | > 7.40 | > 10 |  | N^9-{2-[2-(1H-Imidazol-4-yl)-ethylcarbamoyl]-2-methyl-propionyl}-N^ε26-{2-[2-(2-{2-[2-(2-{(S)-4-[4-(4-tert-Butyl-phenyl)-butyrylamino]-4-carboxy-butyrylamino}-ethoxy)-ethoxy]-acetylamino}-ethoxy)-ethoxy]-acetyl}, N^ε37-{2-[2-(2-{2-[2-(2-{(S)-4-[4-(4-tert-Butyl-phenyl)-butyrylamino]-4-carboxy-butyrylamino}-ethoxy)-ethoxy]-acetylamino}-ethoxy)-ethoxy]-acetyl}[Arg^34, Lys^37]GLP-1(9-37)-peptide |

From patent publication US20120329711A1, “GLP-1 RECEPTOR AGONIST COMPOUNDS WITH A MODIFIED N-TERMINUS” (Nordisk A/S, priority 2009, published 2012)
